Laboratory results from article PMC3661714 (Circulation, 2013).
Starred links: 1 amine or outer side, 2 acyl side, 3 side chain; linkers in the order of their positions; H or OH if unused. Residues, ends and D or L forms follow the SMILES beside them. Groups on a side chain read outwards from the residue. *: point of attachment. X1 = FCCOC1CCCC2C(=CNN=C2c2ccc(CN*)cc2)CC1; Glutaryl = O=C(CCCC(=O)[*:2])[*:1]

Assays:
[1] = molecular target: T1, plasma transglutaminase factor XIII (FXIII) (Mus musculus, UniProt Q8BH61); assay: Scintillation counting of 18F-FXIII signal in hearts with or without MI; format: in vivo; conditions: p<0.05
T1 sequence (Q8BH61 1-732): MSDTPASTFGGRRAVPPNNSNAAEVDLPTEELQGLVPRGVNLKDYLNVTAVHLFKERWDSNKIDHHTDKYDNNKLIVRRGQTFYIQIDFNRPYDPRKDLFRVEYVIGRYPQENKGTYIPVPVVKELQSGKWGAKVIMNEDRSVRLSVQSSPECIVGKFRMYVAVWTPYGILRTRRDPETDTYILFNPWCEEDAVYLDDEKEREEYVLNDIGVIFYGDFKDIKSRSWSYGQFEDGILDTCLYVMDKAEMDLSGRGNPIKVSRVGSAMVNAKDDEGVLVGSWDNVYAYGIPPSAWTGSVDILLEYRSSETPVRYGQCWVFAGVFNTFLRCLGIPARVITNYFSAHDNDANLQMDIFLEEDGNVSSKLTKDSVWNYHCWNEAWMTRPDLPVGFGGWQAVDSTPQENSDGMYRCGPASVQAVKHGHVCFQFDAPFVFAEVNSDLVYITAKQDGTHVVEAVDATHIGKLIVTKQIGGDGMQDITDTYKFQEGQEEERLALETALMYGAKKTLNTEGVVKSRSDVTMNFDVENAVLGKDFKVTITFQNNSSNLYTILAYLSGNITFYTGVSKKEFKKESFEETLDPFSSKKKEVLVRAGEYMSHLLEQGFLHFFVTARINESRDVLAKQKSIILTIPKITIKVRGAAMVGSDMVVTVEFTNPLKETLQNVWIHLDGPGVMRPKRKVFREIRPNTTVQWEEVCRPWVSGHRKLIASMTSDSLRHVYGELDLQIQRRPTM

in vivo = conditions: B6, mouse, iv, SEM
[2] = B6 mice, injected i.v., n = 5, R^2 = 0.95, mean±SEM

**Q.** Which “Signal intensity in hearts of FXIII−/− mice with MI (specificity)” value ([1]; day 4 after MI, comparable to non-infarcted wild-type B6 and FXIII−/− mice) does the source give for `CC(=O)NCC(=O)N[C@@H](CC(N)=O)C(=O)N[C@@H](CCC(N)=O)C(=O)N[C@@H](CCC(=O)O)C(=O)N[C@@H](CCC(N)=O)C(=O)N[C@H](C(=O)N[C@@H](CO)C(=O)N1CCC[C@H]1C(=O)N[C@@H](CC(C)C)C(=O)N[C@H](C(=O)N[C@@H](CC(C)C)C(=O)N[C@@H](CC(C)C)C(=O)N[C@@H](CCCCNC(=O)CCCC(=O)NCc1ccc(C2=NNC=C3CCC(OCCF)CCCC32)cc1)C(=O)N[C@@H](Cc1c[nH]c2ccccc12)C(=O)O)[C@@H](C)O)C(C)C` (stereo partly drawn) [18F-FXIII] (Ac-GNQEQVSPLTLLK([Glutaryl-X1])W-OH; N-terminus and C-terminus assumed) here?
**A.** Its value is “significantly lower”.

**Q.** What about the “18F-FXIII signal in the heart, B6 mice with MI compared to control mice” value ([1]; day 4 after coronary ligation, n = 4-5 per group) of the same compound?
**A.** The value was “significantly higher”.

**Q.** What about the tissue uptake at 1.25 h (in vivo; blood) of the same compound?
**A.** Its tissue uptake at 1.25 h is 0.49 ± 0.03 %ID/g.

**Q.** And the tissue uptake at 1.25 h (in vivo; bone)?
**A.** Its tissue uptake at 1.25 h is 0.31 ± 0.03 %ID/g.

**Q.** What about the tissue uptake at 1.25 h (in vivo; fat) of the same compound?
**A.** Its tissue uptake at 1.25 h is 0.17 ± 0.01 %ID/g.

**Q.** And the tissue uptake at 1.25 h (in vivo; heart)?
**A.** The tissue uptake at 1.25 h was 0.23 ± 0.03 %ID/g.

**Q.** What about the tissue uptake at 1.25 h (in vivo; intestines) of the same compound?
**A.** Its tissue uptake at 1.25 h is 0.25 ± 0.04 %ID/g.

**Q.** What about the tissue uptake at 1.25 h (in vivo; kidney) of the same compound?
**A.** Its tissue uptake at 1.25 h is 1.26 ± 0.06 %ID/g.

**Q.** And the tissue uptake at 1.25 h (in vivo; liver)?
**A.** Its tissue uptake at 1.25 h is 2.83 ± 0.22 %ID/g.

**Q.** And the tissue uptake at 1.25 h (in vivo; lymph node)?
**A.** The tissue uptake at 1.25 h was 0.6 ± 0.1 %ID/g.

**Q.** What about the tissue uptake at 1.25 h (in vivo; muscle) of the same compound?
**A.** The tissue uptake at 1.25 h was 0.15 ± 0.01 %ID/g.

**Q.** What about the tissue uptake at 1.25 h (in vivo; skin) of the same compound?
**A.** The tissue uptake at 1.25 h was 0.31 ± 0.05 %ID/g.

**Q.** And the tissue uptake at 1.25 h (in vivo; spleen)?
**A.** The tissue uptake at 1.25 h was 0.49 ± 0.05 %ID/g.

**Q.** What about the tissue uptake at 1.25 h (in vivo; tail) of the same compound?
**A.** The tissue uptake at 1.25 h was 0.41 ± 0.03 %ID/g.

**Q.** And the blood half-life [2]?
**A.** Its blood half-life is 13.2 ± 0.94 min.
